Assay results published in paper PMC8140096, “Structural basis of substrate recognition and thermal protection by a small heat shock protein” (Nature Communications, 2021).

B1: Arabidopsis thaliana 1-deoxy-D-xylulose 5-phosphate synthase (59-717), C-terminal hexahistidine-FLAG tandem tag (enzyme, UniProt Q38854 59-717, looked up)
chain: ASLAEKGEYYSNRPPTPLLDTINYPIHMKNLSVKELKQLSDELRSDVIFNVSKTGGHLGSSLGVVELTVALHYIFNTPQDKILWDVGHQSYPHKILTGRRGKMPTMRQTNGLSGFTKRGESEHDCFGTGHSSTTISAGLGMAVGRDLKGKNNNVVAVIGDGAMTAGQAYEAMNNAGYLDSDMIVILNDNKQVSLPTATLDGPSPPVGALSSALSRLQSNPALRELREVAKGMTKQIGGPMHQLAAKVDEYARGMISGTGSSLFEELGLYYIGPVDGHNIDDLVAILKEVKSTRTTGPVLIHVVTEKGRGYPYAERADDKYHGVVKFDPATGRQFKTTNKTQSYTTYFAEALVAEAEVDKDVVAIHAAMGGGTGLNLFQRRFPTRCFDVGIAEQHAVTFAAGLACEGLKPFCAIYSSFMQRAYDQVVHDVDLQKLPVRFAMDRAGLVGADGPTHCGAFDVTFMACLPNMIVMAPSDEADLFNMVATAVAIDDRPSCFRYPRGNGIGVALPPGNKGVPIEIGKGRILKEGERVALLGYGSAVQSCLGAAVMLEERGLNVTVADARFCKPLDRALIRSLAKSHEVLITVEEGSIGGFGSHVVQFLALDGLLDGKLKWRPMVLPDRYIDHGAPADQLAEAGLMPSHIAATALNLIGAPREALF
notes: 1-deoxy-D-xylulose 5-phosphate synthase (DXPS), Arabidopsis thaliana, UniProt Q38854, residues 59-717, without the transit peptide; also called DXPS; DXPS-His-FLAG; source: E. coli BL21 Rosetta 2 (DE3), co-expressed with His-Hsp21 at 37 °C, purified (HisTrap, anti-FLAG M2); not shown: His6, C-terminal, kept; FLAG, C-terminal, kept

Tests used:
[1] = target: the molecule itself; test: cryo-EM structure; purified Hsp21 without substrate, 1 mg/mL; tetrahedral symmetry imposed, 4.6 Å
[2] = target: B1; test: cryo-EM structure; His-Hsp21 and DXPS-His-FLAG co-expressed in E. coli at 37 °C, purified together (HisTrap, anti-FLAG), 0.7 mg/mL; 3D classification gave free DXPS (4.0 Å) and Hsp21-DXPS (3.7 Å); conditions: both partners purified
[3] = target: the molecule itself; test: as above

Row | stoichiometry N [2] | Binder | stoichiometry N [1] | stoichiometry N [3]
1 | 1 | Arabidopsis thaliana plastid small heat shock protein Hsp21 (44-227), N-terminal hexahistidine tag (natural protein, Hsp21, Arabidopsis thaliana, UniProt P31170, residues 44-227, without the transit peptide; Alone it is a dodecamer (twelve identical subunits, tetrahedral); In the complex with DXPS it is a single monomer; also called His-Hsp21; Hsp21 dodecamer; source: E. coli BL21 Rosetta 2 (DE3), co-expressed with DXPS-His-FLAG at 37 °C, complex purified (HisTrap, anti-FLAG M2); E. coli BL21 Rosetta (DE3), …) not shown | 12 | –
2 | – | B1 | – | 2
